Reference: PMC6616571

Tested on: wild-type DNA polymerase beta (human)
Test: EMSA
Details: 10 nM DNA, 5 mM MgCl2; approximately 50% of DNA bound at 32 nM enzyme; EMSA: 50 mM Tris-HCl pH 7.5, 100 mM KCl, 5 mM MgCl2, 1 mM DTT, 10% glycerol, 100 ug/ml BSA, room temperature 5 min; 10% native PAGE at 4 C

For 1-nt gapped 34-bp DNA, which K half is on record?
The K half was 32 nM.
